The values below come from patent US20190062417A1 (SHANGHAI JW INFLINHIX, published 2019).

This assay deals with T1, TNF receptors on the surface of L929 cells (mouse (L929 cells), UniProt P25118 30-454).
T1 construct: whole, on cells; the Methods stain with anti-TNFR1; also called cell surface receptors; TNF cell membrane surface receptors
T1 sequence (looked up): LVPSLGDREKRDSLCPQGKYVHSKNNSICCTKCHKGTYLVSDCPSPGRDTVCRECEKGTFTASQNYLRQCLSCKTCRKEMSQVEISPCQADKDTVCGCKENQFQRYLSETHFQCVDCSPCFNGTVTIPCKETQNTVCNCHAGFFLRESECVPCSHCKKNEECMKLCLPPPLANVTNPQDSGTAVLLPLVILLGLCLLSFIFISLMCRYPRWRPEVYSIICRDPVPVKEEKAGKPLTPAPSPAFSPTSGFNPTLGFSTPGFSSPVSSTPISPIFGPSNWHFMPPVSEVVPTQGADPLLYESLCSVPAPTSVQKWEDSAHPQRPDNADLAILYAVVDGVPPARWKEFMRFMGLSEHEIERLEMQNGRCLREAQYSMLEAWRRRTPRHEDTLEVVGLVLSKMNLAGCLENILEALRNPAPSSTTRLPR
In words: confocal microscopy on L929 cells, 244-12 alone.

Protocol: The cells were fixed with 4% paraformaldehyde (in PBS) for 10 min, blocked in a phosphate-buffer containing 0.5% BSA and 0.1% cold water fish-gelatin for 15min and subsequently incubated with rabbit anti-TNFR1 antibodies (Abcam) for 1 hour. […] PBS-washed specimens were then mounted in Gelvatol/DABCO (Sigma-Aldrich). DNA was counterstained with DAPI (Sigma-Aldrich). All samples were analyzed by fluorescent microscopy using a Nikon Eclipse 80i at 60×. Images were acquired with MS-Elements AR3.0 software using a Hamamatsu camera.

B1: monoclonal antibody 244-12 (antibody, mouse IgG2b, kappa, V domains shown)
VH: QIQLVQSGPELKKPGETVKISCKASGYTFTNYGMNWVKQAPGKGLKWMGWINTYTGEPTYADDFKGRFAFSLETSANTAYLQINNLRNEGMATYFCARHYRYAWFPYWGQGTLVTVSA
VL: DIQMTQSPASLSASVGETVTITCRASGNIHIYLAWYQQKQGKSPQLLVYNAKTLADGVPSRFSGSGSGTQYSLKINSLQPEDFGSYYCQHFWSIPWTFGGGTKLEIKR
notes: also called antibody of the present invention
For the molecule B1, the binding result was “no binding”.
